The experiment has as its system aminoglycoside phosphorylase (KanR). Format: cell-based, S. cerevisiae.

“Also recorded” adds a separate entry of the source.

B1: intein(N)-ER-intein(C): starting RecA intein with the estrogen receptor ligand binding domain in place of the endonuclease domain, SEQ ID NO: 1 (protein)
chain: CLAEGTRIFDPVTGTTHRIEDVVDGRKPIHVVAAAKDGTLHARPVVSWFDQGTRDVIGLRIAGGAIVWATPDHKVLTEYGWRAAGELRKGDRVAGPGGSGNSLALSLTADQMVSALLDAEPPILYSEYDPTRPFSEASMMGLLTNLADRELVHMINWAKRVPGFVDLTLHDQVHLLECAWLEILMIGLVWRSMEHPGKLLFAPNLLLDRNQGKCVEGMVEIFDMLLATSSRFRMMNLQGEEFVCLKSIILLNSGVYTFLSSTLKSLEEKDHIHRVLDKITDTLIHLMAKAGLTLQQQHQRLAQLLLILSHIRHMSNKRMEHLYSMKCKNVVPLYDLLLEMLDAHRLHAGGSGASRVQAFADALDDKFLHDMLAEELRYSVIREVLPTRRARTFDLEVEELHTLVAEGVVVHN
modifications: M. tuberculosis RecA intein with the estrogen ligand binding domain inserted in place of the RecA endonuclease domain with six amino acid linkers in between.
Regarding B1, the “geneticin resistance (growth) in the KanR context” value is recorded as “confers no geneticin resistance in the presence or absence of 4-HT; also recorded: unable to grown; also recorded: fails to confer geneticin resistance”.
